Experimental findings from article doi:10.1101/2023.06.12.544689 (bioRxiv, 2023) are described below.

Experiment [1] addresses T1, human claudin-9, biotinylated (hsCLDN-9-Biotin) (human, UniProt O95484).
T1 sequence: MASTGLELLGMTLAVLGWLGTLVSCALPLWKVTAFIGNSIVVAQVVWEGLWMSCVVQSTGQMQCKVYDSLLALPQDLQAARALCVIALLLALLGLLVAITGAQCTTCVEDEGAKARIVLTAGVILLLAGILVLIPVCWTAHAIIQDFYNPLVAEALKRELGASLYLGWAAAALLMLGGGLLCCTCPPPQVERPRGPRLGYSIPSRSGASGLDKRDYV
Kind of experiment: BLI.

In experiment [2] the target is T2, mouse claudin-4, biotinylated (mmCLDN-4-Biotin) (mouse, UniProt O35054 1-210).
T2 sequence: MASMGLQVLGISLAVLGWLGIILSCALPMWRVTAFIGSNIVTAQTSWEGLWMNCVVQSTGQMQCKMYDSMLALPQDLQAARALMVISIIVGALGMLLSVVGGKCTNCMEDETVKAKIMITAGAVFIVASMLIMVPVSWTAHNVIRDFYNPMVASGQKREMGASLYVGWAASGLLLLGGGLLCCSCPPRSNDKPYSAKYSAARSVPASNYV
Briefly: BLI.

The target in experiment [3] is T3, human claudin-4, biotinylated (hsCLDN-4-Biotin) (human, UniProt O14493 1-209).
T3 sequence: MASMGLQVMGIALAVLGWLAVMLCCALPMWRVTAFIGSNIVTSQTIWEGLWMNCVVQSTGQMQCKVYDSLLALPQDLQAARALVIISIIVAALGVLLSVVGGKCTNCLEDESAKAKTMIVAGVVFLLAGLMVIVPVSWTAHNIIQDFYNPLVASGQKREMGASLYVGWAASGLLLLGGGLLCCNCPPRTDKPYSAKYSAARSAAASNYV
Briefly: BLI. For orientation: Biolayer interferometry detects binding as a change in optical thickness at a sensor tip.

Experiment [4] addresses C-terminal domain of Clostridium perfringens enterotoxin (cCpE), tagless (Clostridium perfringens, UniProt P01558).

A value given as a limit tells only on which side of the number the result lay.

As a reminder, the Kd is the constant that tells how readily two partners part at equilibrium. A higher Kd goes with lower affinity.

B1: cCpE-His10 (domain or fragment)
chain: STDIEKEILDLAAATERLNLTDALNSNPAGNLYDWRSSNSYPWTQKLNLHLTITATGQKYRILASKIVDFNIYSNNFNNLVKLEQSLGDGVKDHYVDISLDAGQYVLVMKANSSYSGNYPYSILFQKF
As for B1, the dissociation constant Kd in experiment [1], in experiment [2] and in experiment [3] was less than 12 nM throughout.

B2: COP-3 (antibody, V domains shown)
VH: EVQLVESGGGLVQPGGSLRLSCAASGFNFYSSSIHWVRQAPGKGLEWVAYISSYSGYTYYADSVKGRFTISADTSKNTAYLQMNSLRAEDTAVYYCARGYGYFDYNFSVGYALDYWGQGTLVTVSS
VL: DIQMTQSPSSLSASVGDRVTITCRASQSVSSAVAWYQQKPGKAPKLLIYSASSLYSGVPSRFSGSRSGTDFTLTISSLQPEDFATYYCQQSHPWYYPITFGQGTKVEIK
Take B2: in experiment [4], the binding result is given as “binds”.
